Biological target: GST-MoMkk1 (Magnaporthe oryzae) (UniProt G4N6Z6)
Assay: MST

His-MoPtc1 (enzyme)
Kd: 1050 nM

His-MoPtc2 (enzyme)
Kd: 2270 nM
